Test results reported in publication PMC4798592, “A Surfactant-Induced Functional Modulation of a Global Virulence Regulator from Staphylococcus aureus” (PLoS ONE, 2016).

Biological target: the molecule itself
Assay: cross-linking; glutaraldehyde-mediated cross-linking of rSarA (10 uM) in buffer B [20 mM phosphate buffer (pH 8.0), 100 mM NaCl, 5% glycerol] or buffer C (buffer B with 0.7 mM TX-100); analysed by SDS-13.5% PAGE

B1: recombinant S. aureus SarA (rSarA) (natural protein)
chain: MAITKINDCFELLSMVTYADKLKSLIKKEFSISFEEFAVLTYISENKEKEYYLKDIINHLNYKQPQVVKAVKILSQEDYFDKKRNEHDERTVLILVNAQQRKKIESLLSRVNKRITEANNEIEL
notes: source: purified as described [8]
  stoichiometry N: 2
